Measurements reported in patent US20250051478A1 (Y MABS THERAPEUTICS, published 2025).

Tests used:
CD38 [1] = target: T1, CD38 (UniProt P28907 43-300, limits assumed); assay: SPR; YMS9d diluted to 1 mg/ml from the 10 mg/ml solution
T1 construct: also called cyclic ADP ribose hydrolase

CD38 [2] = target: T1, CD38; assay: SPR; YMS9d diluted to 1 mg/ml from the 20 mg/ml solution

B1: YMS9d (bispecific antibody)
chain: QVQLQESGPGLVKPSETLSLTCTVSGFSLTSYGVHWVRQPPGKGLEWIGVMWRGGSTDYNAAFKSRVTISKDNSKNQVSLKLSSVTAADTAVYYCAKSMITTGFVMDSWGQGTLVTVSSGGGGSGGGGSGGGGSGGGGSGGGGSGGGGSDIQLTQSPSSLSASVGDRVTITCKASEDIYNRLTWYQQKPGKAPKLLISGATSLETGVPSRFSGSGSGKDYTFTISSLQPEDFATYYCQQYWSNPYTFGQGTKLEIKGGGGSGGGGSGGGGSGGGGSHVQLVESGGGLVQPGGSLRLSCAASGFSLTDYGVHWVRQAPGKGLEWLGVIWSGGGTAYNTALISRFTISRDNSKNTLYLQMNSLRAEDTAVYYCARRGSYPYNYFDAWGQGTLVTVSSGGGGSGGGGSGGGGSGGGGSGGGGSGGGGSQAVVTQEPSLTVSPGGTVTLTCGSSTGAVTASNYANWVQQKPGQAPRGLIGGHNNRPPGVPARFSGSLLGGKAALTLLGAQPEDEAEYYCALWYSDHWVIGGGTKLTVLGTPLGDTTHTSGKPLDGEYFTLQIRGRERFEMFRELNEALELKDAQAGKEPGGSGGAP
modifications: Self-assembles into tetramers through the p53 SADA domain; labelled with 125I in Example 8.
notes: also called CD38-SADA construct without disulfide bonds; CD38-SADA
Kd (CD38 [1]): 7.5 nM | koff (CD38 [1]): 0.0011 s⁻¹ | kon (CD38 [1]): 140000 M⁻¹ s⁻¹ | Kd (CD38 [2]): 8.1 nM | koff (CD38 [2]): 0.0011 s⁻¹ | kon (CD38 [2]): 130000 M⁻¹ s⁻¹
